# Assay results reported in PMC8327961, “Nse5/6 inhibits the Smc5/6 ATPase and modulates DNA substrate binding” (The EMBO Journal, 2021).
# B1: Nse3 (natural protein, S. cerevisiae, UniProt Q05541 1-303, looked up)
# chain: MSSIDNDSDVDLTEDLAVAKIVKENPVARKMVRYILSRGESQNSIITRNKLQSVIHEAAREENIAKPSFSKMFMDINAILYNVYGFELQGLPSKNNMNAGGNGSNSNTNKSMPEPLGHRAQKFILLNNVPHSKNFDDFKILQSAHTYEELIVTGEYIGDDIASGTSNTLESKLSTDRDLVYKGVLSVILCIVFFSKNNILHQELIKFLETFGIPSDGSKIAILNITIEDLIKSLEKREYIVRLEEKSDTDGEVISYRIGRRTQAELGLESLEKLVQEIMGLEKEQTKSLHDDIIKSIGDSYSI
# notes: Nse3, S. cerevisiae; source: E. coli (DE3) Rosetta, co-expressed with the other subunits of the hexamer, purified as part of the complex
# B2: Smc5 (natural protein, S. cerevisiae, UniProt Q08204 1-1093, looked up)
# chain: MTSLIDLGRYVERTHHGEDTEPRSKRVKIAKPDLSSFQPGSIIKIRLQDFVTYTLTEFNLSPSLNMIIGPNGSGKSTFVCAVCLGLAGKPEYIGRSKKVEDFIKNGQDVSKIEITLKNSPNVTDIEYIDARDETIKITRIITRSKRRSDYLINDYQVSESVVKTLVAQLNIQLDNLCQFLSQERVEEFARLKSVKLLVETIRSIDASLLDVLDELRELQGNEQSLQKDLDFKKAKIVHLRQESDKLRKSVESLRDFQNKKGEIELHSQLLPYVKVKDHKEKLNIYKEEYERAKANLRAILKDKKPFANTKKTLENQVEELTEKCSLKTDEFLKAKEKINEIFEKLNTIRDEVIKKKNQNEYYRGRTKKLQATIISTKEDFLRSQEILAQTHLPEKSVFEDIDIKRKEIINKEGEIRDLISEIDAKANAINHEMRSIQRQAESKTKSLTTTDKIGILNQDQDLKEVRDAVLMVREHPEMKDKILEPPIMTVSAINAQFAAYLAQCVDYNTSKALTVVDSDSYKLFANPILDKFKVNLRELSSADTTPPVPAETVRDLGFEGYLSDFITGDKRVMKMLCQTSKIHTIPVSRRELTPAQIKKLITPRPNGKILFKRIIHGNRLVDIKQSAYGSKQVFPTDVSIKQTNFYQGSIMSNEQKIRIENEIINLKNEYNDRKSTLDALSNQKSGYRHELSELASKNDDINREAHQLNEIRKKYTMRKSTIETLREKLDQLKREARKDVSQKIKDIDDQIQQLLLKQRHLLSKMASSMKSLKNCQKELISTQILQFEAQNMDVSMNDVIGFFNEREADLKSQYEDKKKFVKEMRDTPEFQSWMREIRSYDQDTKEKLNKVAEKYEEEGNFNLSFVQDVLDKLESEIAMVNHDESAVTILDQVTAELRELEHTVPQQSKDLETIKAKLKEDHAVLEPKLDDIVSKISARFARLFNNVGSAGAVRLEKPKDYAEWKIEIMVKFRDNAPLKKLDSHTQSGGERAVSTVLYMIALQEFTSAPFRVVDEINQGMDSRNERIVHKAMVENACAENTSQYFLITPKLLTGLHYHEKMRIHCVMAGSWIPNPSEDPKMIHFGETSNYSFD
# notes: Smc5, S. cerevisiae; stood in the assays as a subunit of the hexamer or octamer; source: E. coli (DE3) Rosetta, co-expressed with the other subunits of the hexamer, purified as part of the complex
# B3: Nse5-AviTag (from Nse5-AviTag-3C-Twin-Strep, Twin-Strep removed) (natural protein, S. cerevisiae, UniProt Q03718 1-556, looked up)
# chain: MDGALINSVLYVSPRNGAHYFVELTEKHLLAFEMLNSMCLLENYDHVLLFLECQFGKSHNLAVIPFDIILVLFTLSTLSEYYKEPILRANDPYNTSRETLSRRALKLLQKYLAILKEFDSEQYNLYDLELLRCQFFLAIDTLTPKKQKWGFDRFRRTKSESGVTYRQNASVDPELDQAKTFKNPYRSYISCLEQRNTILGNRLLNLKLNEPGEFINMILWTLSNSLQESTPLFLSSHEIWMPLLEILIDLFSCRQDYFIQHEVAQNVSKSLFVQRLSESPLAVFFESLNTRNFANRFSEYVFLNCDYKLPSDNYATPVHPVYNGENTIVDTYIPTIKCSPLYKSQKSLALRRKLIGSCFKLLLRVPDGHRLITPRIVADDVIQGISRTLASFNDILQFKKFFMTENLSQESYFIPLLAEGTLSEILKDTQECVVILTLVENLSDGVSFCNEVIGLVKSKCFAFTEQCSQASYEEAVLNIEKCDVCLLVLLRYLLHLIGTEAILDAKEQLEMLHAIEKNDSGRRQWAKALNLGNDPPLLYPIVSQMFGVHDKSVIIE
# notes: Nse5, S. cerevisiae, full length; subunit of the octamer used for XL-MS; the AviTag lies before the 3C site and should remain; source: E. coli (DE3) Rosetta, co-expressed with Nse6, purified (StrepTrap, heparin, SEC); Twin-Strep removed by HRV-3C; not shown: Twin-Strep (after a 3C site), C-terminal, cleaved
# B4: Nse4 (natural protein, S. cerevisiae, UniProt P43124 1-402, looked up)
# chain: MSSTVISRKRRNSTVTEPDSSGETRKQKKSRSDEKSSSSKDGDPQLEFKVLQGYRDLESEMHKGRAQVTRTGDIGVAMDNLNAVDSLFNKVIGIKNNGLFAHDARAMVSISELAQISVRNLKFDDSRSMVNLENIVNSLKRYMLKEHFKLNNIAENRNDLTLAADEQSAADQQEESDGDIDRTPDDNHTDKATSSFKATSMRHSYLQQFSHYNEFSQFNWFRIGALYNTISKNAPITDHLMGPLSIEKKPRVLTQRRRNNDQVGEKITAEKITQHSLNSTQQETTPEQVKKCFKKLSKKLGPEGSINLFKFIIDPNSFSRSIENLFYTSFLIKEGKLLMEHDEEGLPTIKIKQSISHTDSRSKEIERQRRRAAHQNHIIFQMDMPTWRKLIKKYNITSPFLD
# notes: Nse4, S. cerevisiae; also called kleisin Nse4; source: E. coli (DE3) Rosetta, co-expressed with the other subunits of the hexamer, purified as part of the complex
# B5: Nse2 (natural protein, S. cerevisiae, UniProt P38632 1-267, looked up)
# chain: MALNDNPIPKSVPLHPKSGKYFHNLHARDLSNIYQQCYKQIDETINQLVDSTSPSTIGIEEQVADITSTYKLLSTYESESNSFDEHIKDLKKNFKQSSDACPQIDLSTWDKYRTGELTAPKLSELYLNMPTPEPATMVNNTDTLKILKVLPYIWNDPTCVIPDLQNPADEDDLQIEGGKIELTCPITCKPYEAPLISRKCNHVFDRDGIQNYLQGYTTRDCPQAACSQVVSMRDFVRDPIMELRCKIAKMKESQEQDKRSSQAIDVL
# notes: Nse2, S. cerevisiae; source: E. coli (DE3) Rosetta, co-expressed with the other subunits of the hexamer, purified as part of the complex
# Experiments:
# [1] = molecular target: Smc5/6 octamer (hexamer plus Nse5/6) (Saccharomyces cerevisiae, UniProt Q08204;Q12749;Q07913;P38632;Q05541;P43124;Q03718;P40026 …); experiment: fluorescence anisotropy; details: ATPase buffer: 10 mM Hepes-KOH pH 7.5, 150 mM K-OAc, 2 mM MgCl2, 20% glycerol; anisotropy at 25 C; plasmid pulldown bound at room temperature, high-salt buffer …
# [2] = molecular target: Smc5/6 hexamer (Smc5, Smc6, Nse1, Nse2, Nse3, Nse4) (Saccharomyces cerevisiae) (UniProt Q08204+Q12749+Q07913+P38632+Q05541+P43124); experiment: fluorescence anisotropy; details: ATPase buffer: 10 mM Hepes-KOH pH 7.5, 150 mM K-OAc, 2 mM MgCl2, 20% glycerol; anisotropy at 25 C; plasmid pulldown bound at room temperature, high-salt buffer …
# [3] = molecular target: T1, Smc6 (Twin-Strep-tag removed, as in the octamer for lysine cross-linking) (S. cerevisiae, UniProt Q12749 1-1114); experiment: cross-linking; XL-MS with PhoX (0.25 mM, 20 min, RT) on the octamer, 1.6 µM; ATPase buffer (10 mM Hepes-KOH pH 7.5, 150 mM potassium acetate, 2 mM MgCl2, 20% glycerol); without and with 2 mM ATP and 16 nM plasmid DNA; wild-type and Smc5(EQ)/Smc6(EQ) octamers; details: both partners purified
# T1 construct: Smc6, S. cerevisiae; subunit of the octamer used for XL-MS; source: E. coli (DE3) Rosetta, purified as part of the hexamer; tag removed by HRV-3C before SEC of the octamer; not shown: Twin-Strep (after a 3C site), C-terminal, cleaved
# T1 sequence (looked up): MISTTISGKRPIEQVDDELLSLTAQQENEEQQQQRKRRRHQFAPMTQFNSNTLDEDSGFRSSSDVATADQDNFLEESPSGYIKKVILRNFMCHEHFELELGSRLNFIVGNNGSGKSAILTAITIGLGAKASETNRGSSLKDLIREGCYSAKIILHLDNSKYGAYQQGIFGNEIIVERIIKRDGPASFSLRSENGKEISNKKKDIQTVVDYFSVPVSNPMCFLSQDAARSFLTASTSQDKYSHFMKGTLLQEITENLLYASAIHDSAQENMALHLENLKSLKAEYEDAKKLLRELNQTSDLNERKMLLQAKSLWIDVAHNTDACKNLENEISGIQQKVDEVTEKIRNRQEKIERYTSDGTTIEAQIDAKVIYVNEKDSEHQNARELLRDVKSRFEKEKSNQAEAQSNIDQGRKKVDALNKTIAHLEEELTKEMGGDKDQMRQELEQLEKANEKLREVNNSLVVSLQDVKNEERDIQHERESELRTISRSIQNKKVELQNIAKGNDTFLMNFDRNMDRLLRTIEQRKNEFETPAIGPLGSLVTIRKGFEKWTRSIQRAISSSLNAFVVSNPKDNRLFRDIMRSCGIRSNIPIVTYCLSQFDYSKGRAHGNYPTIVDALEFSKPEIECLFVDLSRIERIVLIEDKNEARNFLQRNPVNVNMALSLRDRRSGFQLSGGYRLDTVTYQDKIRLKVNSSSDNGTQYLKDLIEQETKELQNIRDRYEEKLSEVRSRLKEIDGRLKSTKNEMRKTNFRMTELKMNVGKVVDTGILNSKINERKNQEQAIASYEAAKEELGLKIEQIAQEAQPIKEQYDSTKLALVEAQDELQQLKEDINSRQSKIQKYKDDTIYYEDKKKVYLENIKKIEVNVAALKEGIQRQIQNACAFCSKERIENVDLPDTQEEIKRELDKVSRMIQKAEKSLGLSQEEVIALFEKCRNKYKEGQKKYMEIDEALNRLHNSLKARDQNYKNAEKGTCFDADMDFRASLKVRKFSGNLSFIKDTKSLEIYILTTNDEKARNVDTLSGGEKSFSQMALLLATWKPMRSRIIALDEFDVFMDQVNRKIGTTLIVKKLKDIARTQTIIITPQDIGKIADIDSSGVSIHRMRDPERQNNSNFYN
# [4] = molecular target: T1, Smc6 (Twin-Strep-tag removed, as in the …); experiment: cross-linking; XL-MS with the lysine-reactive PhoX (0.25 mM, 20 min, RT) on the reconstituted octamer, 1.6 µM; salt buffer 20 mM Hepes-KOH pH 7.5, 250 mM NaCl; details: both partners purified
# Nse1/3/4 sub-complex = molecular target: T2, Nse1/3/4 sub-complex (S. cerevisiae, UniProt Q07913 1-336; Q05541 1-303; P43124 1-402); experiment: as above; details: both partners purified
# T2 construct: Nse1, S. cerevisiae; Nse3, S. cerevisiae; Nse4, S. cerevisiae; used where the text names only the module as the partner of a cross-link and not which subunit; also called Nse1/3/4 module; Nse4/3/1 module; source: E. coli (DE3) Rosetta, purified as part of the hexamer and octamer; copies: + +
# T2 sequence (looked up) 1: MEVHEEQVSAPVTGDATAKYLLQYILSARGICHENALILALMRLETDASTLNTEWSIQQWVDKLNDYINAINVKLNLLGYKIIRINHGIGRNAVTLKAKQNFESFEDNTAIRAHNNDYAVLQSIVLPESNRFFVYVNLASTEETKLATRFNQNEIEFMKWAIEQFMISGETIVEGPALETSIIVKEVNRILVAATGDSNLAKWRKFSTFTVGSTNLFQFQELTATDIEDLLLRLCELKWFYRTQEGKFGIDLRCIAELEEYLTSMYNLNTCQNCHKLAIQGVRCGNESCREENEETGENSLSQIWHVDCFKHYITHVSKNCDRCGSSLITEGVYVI
# T2 sequence (looked up) 2: B1 chain
# T2 sequence (looked up) 3: B4 chain
# Smc5/6 octamer (hexamer plus Nse5/6), sequence (P40026 whole entry, one chain of several): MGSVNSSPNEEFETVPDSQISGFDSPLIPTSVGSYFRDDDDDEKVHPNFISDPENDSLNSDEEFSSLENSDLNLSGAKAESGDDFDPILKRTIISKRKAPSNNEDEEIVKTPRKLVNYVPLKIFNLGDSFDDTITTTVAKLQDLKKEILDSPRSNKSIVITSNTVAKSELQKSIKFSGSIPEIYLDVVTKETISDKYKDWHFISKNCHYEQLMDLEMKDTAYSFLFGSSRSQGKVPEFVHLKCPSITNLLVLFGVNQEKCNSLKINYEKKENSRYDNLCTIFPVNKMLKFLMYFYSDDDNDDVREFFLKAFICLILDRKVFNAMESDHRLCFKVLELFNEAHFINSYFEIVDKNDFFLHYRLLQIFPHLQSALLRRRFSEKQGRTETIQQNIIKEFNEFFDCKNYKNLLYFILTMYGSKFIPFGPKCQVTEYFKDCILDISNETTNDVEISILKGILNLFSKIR
Molecule,binding result [3],binding result [4],also measured
40-mer ssDNA,,,Kd [1]: 100 nM; Kd [2]: 150 nM
B1,binds,,
B2,,binds,
B3,,binds,binding result (Nse1/3/4 sub-complex): binds
B4,binds,,
B5,binds,,
